Test results as given in patent US20240026032A1 (Alexion, published 2024).

Experiments:
[1] = biological target: T1, Programmed Death 1 (PD-1) Fc chimera (R&D Systems, Catalog # 1086-PD-050) (human, UniProt Q15116 25-167); assay: BLI, PD-1 Fc loaded on anti-human IgG tips, fusion as analyte, dissociation in PBS
T1 construct: Bought reagent; not shown: Fc part of the bought chimera (captured by anti-human Fc tips)

[2] = biological target: T1, Programmed Death 1 (PD-1) Fc chimera …; assay: BLI (Octet Red), TPP-985 loaded on anti-human IgG Fc tips, DLAT 10 µg/mL bound first, then PD-1 Fc
Description: (§1) Antibodies and antibody fusions were diluted to 16 μg/mL in PBS and loaded onto anti-human IgG Fc tips (ForteBio, Catalog # 18-5064). Human DLAT recombinant protein (ProSpec, Catalog # ENZ-082) was diluted into PBS to 10 μg/mL. […] Finally, a dissociation step in PBS was performed to determine dissociation from the bound antibodies.

[3] = biological target: T1, Programmed Death 1 (PD-1) Fc chimera …; assay: BLI (Octet Red), TPP-990 loaded on anti-human IgG Fc tips, DLAT 10 µg/mL bound first, then PD-1 Fc
Description: as §1

[4] = biological target: T1, Programmed Death 1 (PD-1) Fc chimera …; assay: BLI (Octet), PD-1 Fc captured on anti-human Fc tips, TPP-999 at 10 µg/mL in PBS as analyte
Description: (§2) Final dissociation in PBS was performed in the last step on the Bio-Layer Interferometry (BLI) data.

[5] = biological target: T1, Programmed Death 1 (PD-1) Fc chimera …; assay: BLI (Octet), PD-1 Fc captured on anti-human Fc tips, TPP-1001 at 10 µg/mL in PBS as analyte
Description: as §2

[6] = biological target: T1, Programmed Death 1 (PD-1) Fc chimera …; assay: BLI (Octet), PD-1 Fc captured on anti-human Fc tips, TPP-993 in PBS as analyte
Description: as §2

T1 sequence (Q15116 25-167, change not shown): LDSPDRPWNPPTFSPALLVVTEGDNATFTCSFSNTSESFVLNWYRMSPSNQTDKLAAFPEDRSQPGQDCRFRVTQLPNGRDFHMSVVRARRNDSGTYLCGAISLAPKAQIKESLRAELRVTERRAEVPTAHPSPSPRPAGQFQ

B1: TPP-1986 (murine IgG1 Fc Silent, N-terminus_PDL1_LC_PD5) (antibody)
heavy: QLQLQESGPGLVKPSETLSLTCIVSGGSISRNSYYWGWIRQPPGKGLEWIGSIVYSGSTYHQPSLKSRVTIFLDTSKNQFFLKLTSVTAADTAVYYCARGTRATTWPPPIGYWGQGTLVTVSSAKTTPPSVYPLAPGSAAQTNSMVTLGCLVKGYFPEPVTVTWNSGSLSSGVHTFPAVLQSDLYTLSSSVTVPSSTWPSQTVTCNVAHPASSTKVDKKIVPRDCGCKPCICTVPEQSSVFIFPPKPKDVLMISLTPKVTCVVVDISKDDPEVQFSWFVDDVEVHTAQTKPREEQINSTFRSVSELPILHQDWLNGKEFKCRVNSAAFPAPIEKTISKTKGRPKAPQVYTIPPPKEQMAKDKVSLTCMITNFFPEDITVEWQWNGQPAENYKNTQPIMDTDGSYFVYSKLNVQKSNWEAGNTFTCSVLHEGLHNHHTEKSLSHSPGK
light: FTVTVPKDLYVVEYGSNMTIECKFPVEKQLDLAALIVYWEMEDKNIIQFVHGEEDLKVQHSSYRQRARLLKDQLSLGNAALQITDVKLQDAGVYRCMISYGGADYKRITVKVNAGGSSRSSSSGGGGSGGGGQSVLTQPPSVSAAPGQKVTVSCFGSSSNIGNYFASWYQQLPGAAPRLLIYGNNERPSGIPDRFSGSKSGTSATLVITGLQTGDEAAYYCATWDSSLSAVVFGGGTKLTVLGQPKSSPSVTLFPPSSEELETNKATLVCTITDFYPGVVTVDWKVDGTPVTQGMETTQPSKQSNNKYMASSYLTLTARAWERHSSYSCQVTHEGHTVEKSLSRADCS
notes: also called huPDL1; Human PDL1_Mouse PD5
- binding result [1]: binds

B2: TPP-985, human IgG2/4 PD5 antibody (antibody)
heavy: QLQLQESGPGLVKPSETLSLTCIVSGGSISRNSYYWGWIRQPPGKGLEWIGSIVYSGSTYHQPSLKSRVTIFLDTSKNQFFLKLTSVTAADTAVYYCARGTRATTWPPPIGYWGQGTLVTVSSASTKGPSVFPLAPCSRSTSESTAALGCLVKDYFPEPVTVSWNSGALTSGVHTFPAVLQSSGLYSLSSVVTVPSSNFGTQTYTCNVDHKPSNTKVDKTVERKCCVECPPCPAPPVAGPSVFLFPPKPKDTLMISRTPEVTCVVVDVSQEDPEVQFNWYVDGVEVHNAKTKPREEQFNSTYRVVSVLTVLHQDWLNGKEYKCKVSNKGLPSSIEKTISKAKGQPREPQVYTLPPSQEEMTKNQVSLTCLVKGFYPSDIAVEWESNGQPENNYKTTPPVLDSDGSFFLYSRLTVDKSRWQEGNVFSCSVMHEALHNHYTQKSLSLSLGK
light: QSVLTQPPSVSAAPGQKVTVSCFGSSSNIGNYFASWYQQLPGAAPRLLIYGNNERPSGIPDRFSGSKSGTSATLVITGLQTGDEAAYYCATWDSSLSAVVFGGGTKLTVLGQPKANPTVTLFPPSSEELQANKATLVCLISDFYPGAVTVAWKADGSPVKAGVETTKPSKQSNNKYAASSYLSLTPEQWKSHRSYSCQVTHEGSTVEKTVAPTECS
notes: also called PD5_IgG2-4; anti-DLAT IgG2-4 antibody with no PD-L1 variable-like domain
- binding result [2]: no binding (tested: 12.5 µg/mL)

B3: TPP-990, human IgG2/4 PD5 antibody, C-terminus PD-L1 LC (antibody)
heavy: B2 heavy
light: QSVLTQPPSVSAAPGQKVTVSCFGSSSNIGNYFASWYQQLPGAAPRLLIYGNNERPSGIPDRFSGSKSGTSATLVITGLQTGDEAAYYCATWDSSLSAVVFGGGTKLTVLGQPKANPTVTLFPPSSEELQANKATLVCLISDFYPGAVTVAWKADGSPVKAGVETTKPSKQSNNKYAASSYLSLTPEQWKSHRSYSCQVTHEGSTVEKTVAPTECSGGSSRSSSSGGGGSGGGGFTVTVPKDLYVVEYGSNMTIECKFPVEKQLDLAALIVYWEMEDKNIIQFVHGEEDLKVQHSSYRQRARLLKDQLSLGNAALQITDVKLQDAGVYRCMISYGGADYKRITVKVNA
notes: Antibody fused with the human PD-L1 variable-like domain
- binding result [3]: no binding (tested: 12.5 µg/mL)

B4: TPP-999 (PD2 with PD-L1 fused to the C-terminus of the light chain) (Fab)
heavy: EVQLVESGGGLVKPGGSLRLSCAASGFTFGSYSMTWVRQAPGKGLEWVSFISTVSTYIYYPDSVKGRFTISRDNAKNSLYLQMNSLRAEDTAVYYCARVSGRGSAARDGEKGTYYYYMDVWGKGTTVTVSSASTKGPSVFPLAPSSKSTSGGTAALGCLVKDYFPEPVTVSWNSGALTSGVHTFPAVLQSSGLYSLSSVVTVPSSSLGTQTYICNVNHKPSNTKVDKRVEPKSC
light: SSELTQDPAVSVALGQTVTITCQGDSLRSYYASWYQQKPGQAPVLVIFGKNNRPSGIPDRFSGSRSGNTASLTITGAQAEDEADYFCDSRDSSANHWVFGGGTKLTVLQPKAAPSVTLFPPSSEELQANKATLVCLISDFYPGAVTVAWKADSSPVKAGVETTTPSKQSNNKYAASSYLSLTPEQWKSHKSYSCQVTHEGSTVEKTVAPTECSGGSSRSSSSGGGGSGGGGFTVTVPKDLYVVEYGSNMTIECKFPVEKQLDLAALIVYWEMEDKNIIQFVHGEEDLKVQHSSYRQRARLLKDQLSLGNAALQITDVKLQDAGVYRCMISYGGADYKRITVKVNA
notes: Fab fusion with the human PD-L1 variable-like domain
- binding result [4]: binds

B5: TPP-1001 (PD2 with PD-L1 fused to the N-terminus of the light chain) (Fab)
heavy: B4 heavy
light: FTVTVPKDLYVVEYGSNMTIECKFPVEKQLDLAALIVYWEMEDKNIIQFVHGEEDLKVQHSSYRQRARLLKDQLSLGNAALQITDVKLQDAGVYRCMISYGGADYKRITVKVNAGGSSRSSSSGGGGSGGGGSSELTQDPAVSVALGQTVTITCQGDSLRSYYASWYQQKPGQAPVLVIFGKNNRPSGIPDRFSGSRSGNTASLTITGAQAEDEADYFCDSRDSSANHWVFGGGTKLTVLQPKAAPSVTLFPPSSEELQANKATLVCLISDFYPGAVTVAWKADSSPVKAGVETTTPSKQSNNKYAASSYLSLTPEQWKSHKSYSCQVTHEGSTVEKTVAPTECS
notes: as for B4
- binding result [5]: binds

B6: TPP-993 (PD2 Fab having no PD-L1 domain and no linker) (Fab)
heavy: B4 heavy
light: SSELTQDPAVSVALGQTVTITCQGDSLRSYYASWYQQKPGQAPVLVIFGKNNRPSGIPDRFSGSRSGNTASLTITGAQAEDEADYFCDSRDSSANHWVFGGGTKLTVLQPKAAPSVTLFPPSSEELQANKATLVCLISDFYPGAVTVAWKADSSPVKAGVETTTPSKQSNNKYAASSYLSLTPEQWKSHKSYSCQVTHEGSTVEKTVAPTECS
- binding result [6]: no binding (tested: 10 µg/mL)
